Binding affinity (RU) data for 28 molecules are collected here from patent publication US20250011363A1, “OPTIMIZED SHORTENED PEPTIDE THAT BINDS TO ACETYLCHOLINE RECEPTOR, AND USE THEREOF” (SKINMED CO., LTD., priority 2021, published 2025).

The experiment concerns the target acetylcholine receptor. Nature of the experiment: SPR, AchR immobilised on chip, peptide 10 uM. On the technique in general: Surface plasmon resonance follows binding to a sensor surface in real time, without labels.

Molecule RKLICK [6mer-1-1225] registered a Binding affinity (RU) of 142 RU. RRSYCK [6mer-1-214] had a Binding affinity (RU) of 139 RU.

RYMVK [5mer-848] registered a Binding affinity (RU) of 12 RU. In turn, KKRRRK [6mer-1-223] came in with a Binding affinity (RU) of 133 RU. The molecule RKRYSR [6mer-1-215] registered a Binding affinity (RU) of 136 RU. As for KRGFLR [6mer-1-224], the Binding affinity (RU) was 142 RU. Regarding RRLFCR [6mer-1-219], the Binding affinity (RU) turned out to be 121 RU. RDWFR [5mer-1148] displayed a Binding affinity (RU) of 24 RU. Molecule RDTGK [5mer-1147] had a Binding affinity (RU) of 16 RU. Regarding KKWFQR [6mer-1-221], the Binding affinity (RU) was found to be 148 RU. For the molecule KKQLLR [6mer-1-211], the Binding affinity (RU) stood at 123 RU. Take KKQVTR [6mer-1-218]: the Binding affinity (RU) was 126 RU. As for KRVLQR [6mer-1-217], the Binding affinity (RU) turned out to be 135 RU. Molecule RRQITR [6mer-1-203] came in with a Binding affinity (RU) of 142 RU.

In turn, RRQLTK [6mer-1-202] yielded a Binding affinity (RU) of 154 RU.

Molecule KRQRQK [6mer-1-220] yielded a Binding affinity (RU) of 148 RU. As for RRRVRR [6mer-1-222], the figure is 145 RU; as for RRLQTR [6mer-1-206], 121 RU; as for KRSIQR [6mer-1-208], 122 RU. Turning to KRRVRK [6mer-1-213], the Binding affinity (RU) was 127 RU.

Molecule RKGYTR [6mer-1-209] came in with a Binding affinity (RU) of 121 RU.

In turn, RRRICR [6mer-1-212] showed a Binding affinity (RU) of 148 RU.

On to KRWRLR [6mer-1-205], for which the Binding affinity (RU) was 133 RU.

Molecule RRWITR [6mer-1-226] returned a Binding affinity (RU) of 128 RU. The molecule KKRQRR [6mer-1-204] showed a Binding affinity (RU) of 154 RU. As for RKSIQR [6mer-1-216], the figure is 148 RU; as for KKSQQR [6mer-1-207], 151 RU.

KAPEK [5mer-847] had a Binding affinity (RU) of 28 RU.
